Data published in PMC6291843.

Assays:
[1] = target: HNP-(R14,24orn) (human); assay: AUC
[2] = target: human neutrophil peptide-1 (HNP-1) (human); assay: AUC

population of oligomer [1] [%] | population of oligomer [2] [%] | Substance
8 | – | HNP-(R14,24orn) (peptide)
– | 8 | human neutrophil peptide-1 (HNP-1)
